From US20260085129A1 (ECO ANIMAL HEALTH, published 2026)

Assays:
pCD163-SRCR1-9-huFc [1] = target: T1, pCD163-SRCR1-9-huFc (porcine, UniProt Q2VL90 51-1028); test: Biacore 3000 SPR, antigen amine-coupled on CM5 chip, pH 7.4
T1 construct: Limits 51-1028 are those the description gives for CD163-SRCR1-9; also called porcine CD163 SRCR1 to SRCR9 (no PST2) with human Fc; soluble CD163; not shown: human Fc (huFc)
T1 sequence: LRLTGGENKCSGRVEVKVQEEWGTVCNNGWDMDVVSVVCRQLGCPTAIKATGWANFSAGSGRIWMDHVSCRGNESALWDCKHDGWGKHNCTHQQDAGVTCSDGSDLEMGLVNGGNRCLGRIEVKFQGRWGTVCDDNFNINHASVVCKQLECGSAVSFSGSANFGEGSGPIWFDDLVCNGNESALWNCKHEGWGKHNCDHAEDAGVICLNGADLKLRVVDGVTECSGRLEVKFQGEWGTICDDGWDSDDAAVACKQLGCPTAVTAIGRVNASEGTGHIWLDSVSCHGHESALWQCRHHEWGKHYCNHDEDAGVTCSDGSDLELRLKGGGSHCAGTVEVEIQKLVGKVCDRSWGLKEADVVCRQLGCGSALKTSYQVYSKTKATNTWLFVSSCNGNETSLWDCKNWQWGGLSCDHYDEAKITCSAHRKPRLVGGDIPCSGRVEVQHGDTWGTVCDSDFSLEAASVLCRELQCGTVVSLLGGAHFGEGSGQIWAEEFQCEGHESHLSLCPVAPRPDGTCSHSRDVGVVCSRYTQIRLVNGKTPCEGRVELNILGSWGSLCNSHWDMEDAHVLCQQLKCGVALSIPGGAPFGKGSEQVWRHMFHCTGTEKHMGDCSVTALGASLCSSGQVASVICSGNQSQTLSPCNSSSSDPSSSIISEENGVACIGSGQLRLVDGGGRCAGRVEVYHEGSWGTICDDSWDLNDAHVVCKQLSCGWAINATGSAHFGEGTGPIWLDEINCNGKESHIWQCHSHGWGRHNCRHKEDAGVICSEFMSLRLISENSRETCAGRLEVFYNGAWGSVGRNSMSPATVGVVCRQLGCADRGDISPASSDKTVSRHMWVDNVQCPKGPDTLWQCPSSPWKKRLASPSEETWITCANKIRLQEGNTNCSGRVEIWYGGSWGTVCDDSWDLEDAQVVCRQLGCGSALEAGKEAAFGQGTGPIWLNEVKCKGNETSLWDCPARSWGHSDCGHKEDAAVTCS

pCD163-SRCR1-9-huFc [2] = target: T1, pCD163-SRCR1-9-huFc; test: P.E. binding ELISA, antigen coated at 1 ug/ml, anti-c-Myc detection
Procedure: (§1) For P.E. binding ELISA, MaxiSorp™ high protein-binding capacity 96 well ELISA plates, were coated with 1 μg/ml of pCD163-SRCR-FL-PST2-His or huCD6-pPST2-His, or pCD163-SRCR1-9-huFc protein, diluted in PBS, overnight at 4° C. The next day, plates were washed 3× with PBS Tween 0.05% (pH 7.4) and blocked for 1 hour at room temperature with 250 μl/well of 4% Marvel/PBS. After blocking, plates were washed 3× with PBS Tween 0.05% (pH7.4) and incubated per well with 20 μl of P.E+80 μl in 1% Marvel/PBS (pH7.4), for 1 hour at room temperature (RT) with shaking. Plates were washed 3× with PBS Tween 0.05% (pH7.4) and incubated with 100 μl of anti-c-Myc antibody (Roche; Cat. nr. 11667203001) followed by secondary antibody DAM-HRP (JIR; Cat. nr. 715-035-150) in 1% Marvel/PBS (pH7.4), for 1 hour at RT with shaking. Plates were washed 3× with PBS Tween 0.05% (pH7.4) and the substrate solution (TMB solution) was added to the plates. Reaction was stopped with H2SO4 and plates read in the plate reader at 450 nm.

pCD163-SRCR-FL-PST2-His = target: T2, pCD163-SRCR-FL-PST2-His (porcine, UniProt Q2VL90 51-1044); test: as above
T2 construct: also called pCD163-1-PST2-His; pCD163-SRCR1-PST2; not shown: His tag
T2 sequence: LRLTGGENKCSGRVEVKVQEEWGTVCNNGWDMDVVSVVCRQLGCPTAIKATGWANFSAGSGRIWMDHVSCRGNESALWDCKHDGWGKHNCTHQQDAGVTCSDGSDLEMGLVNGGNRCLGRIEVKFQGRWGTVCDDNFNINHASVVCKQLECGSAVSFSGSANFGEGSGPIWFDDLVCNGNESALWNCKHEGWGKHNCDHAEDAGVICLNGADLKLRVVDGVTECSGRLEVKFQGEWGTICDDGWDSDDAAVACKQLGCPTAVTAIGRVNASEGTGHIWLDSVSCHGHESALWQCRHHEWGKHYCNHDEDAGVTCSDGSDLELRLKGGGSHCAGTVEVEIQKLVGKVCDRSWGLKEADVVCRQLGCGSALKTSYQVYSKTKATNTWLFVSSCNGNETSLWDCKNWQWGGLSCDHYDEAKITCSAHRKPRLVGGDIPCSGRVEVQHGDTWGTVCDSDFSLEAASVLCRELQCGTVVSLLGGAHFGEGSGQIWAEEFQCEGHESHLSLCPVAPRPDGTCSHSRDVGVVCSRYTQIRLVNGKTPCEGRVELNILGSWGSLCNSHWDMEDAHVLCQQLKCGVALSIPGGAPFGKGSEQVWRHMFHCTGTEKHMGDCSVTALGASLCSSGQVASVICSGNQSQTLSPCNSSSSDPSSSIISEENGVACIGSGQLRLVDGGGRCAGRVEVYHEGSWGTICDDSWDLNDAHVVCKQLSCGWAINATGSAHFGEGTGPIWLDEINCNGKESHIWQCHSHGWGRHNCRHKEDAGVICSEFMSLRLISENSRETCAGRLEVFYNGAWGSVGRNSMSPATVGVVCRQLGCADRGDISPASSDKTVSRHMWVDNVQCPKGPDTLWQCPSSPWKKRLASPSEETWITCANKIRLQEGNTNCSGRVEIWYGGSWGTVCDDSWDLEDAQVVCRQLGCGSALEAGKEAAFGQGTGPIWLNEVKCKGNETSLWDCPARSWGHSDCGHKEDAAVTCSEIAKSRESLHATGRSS
Procedure: as §1

huCD6-pPST2-His = target: T3, huCD6-pPST2-His (human, UniProt P30203 18-402); test: as above
T3 construct: composition read from the name; not shown: His tag
T3 sequence (P30203 whole entry): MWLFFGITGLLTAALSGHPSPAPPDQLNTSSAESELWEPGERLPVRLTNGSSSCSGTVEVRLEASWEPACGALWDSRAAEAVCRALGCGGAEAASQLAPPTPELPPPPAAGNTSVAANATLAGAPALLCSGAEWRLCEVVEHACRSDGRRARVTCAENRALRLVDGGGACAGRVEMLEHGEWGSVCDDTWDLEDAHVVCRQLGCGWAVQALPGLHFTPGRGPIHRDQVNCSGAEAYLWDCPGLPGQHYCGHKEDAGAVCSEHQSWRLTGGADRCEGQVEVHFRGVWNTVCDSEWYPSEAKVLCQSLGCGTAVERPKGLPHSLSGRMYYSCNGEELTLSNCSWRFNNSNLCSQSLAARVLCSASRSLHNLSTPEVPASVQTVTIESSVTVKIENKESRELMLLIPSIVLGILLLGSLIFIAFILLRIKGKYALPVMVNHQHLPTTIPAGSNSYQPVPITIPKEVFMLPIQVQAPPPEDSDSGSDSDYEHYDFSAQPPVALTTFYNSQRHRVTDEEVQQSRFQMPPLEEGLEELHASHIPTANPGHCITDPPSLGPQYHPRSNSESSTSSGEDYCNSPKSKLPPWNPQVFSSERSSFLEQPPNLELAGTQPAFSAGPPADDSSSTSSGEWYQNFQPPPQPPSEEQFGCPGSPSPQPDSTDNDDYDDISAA
Procedure: as §1

B1: Clone 39-H17B11 VHH antibody (VHH)
VHH: QVQLVESGGGLVQAGGSLRLSCAASGRTFSSYAMGWFRQTPGKDREFVARIGWTGGTTIYADSVKGRFTISRDNAKNTVYLQMNSLKPEDTAVYYCAADQAGWRTAGVRNTYEYDYWGQGTQVTVSS
notes: Llama single domain antibody; also called clone 17B11; not shown: tags: c-myc tag on the soluble VHH in periplasmic extracts; FLAG and His tags on the purified VHH
- binding result (pCD163-SRCR1-9-huFc [1]): no binding (tested: 200 nM (highest VHH concentration))
- O.D. 450 nm (pCD163-SRCR1-9-huFc [2]): 0.091 O.D. 450 nm
- O.D. 450 nm (pCD163-SRCR-FL-PST2-His): 0.066 O.D. 450 nm
- O.D. 450 nm (huCD6-pPST2-His): 0.052 O.D. 450 nm
